Test results published in patent US20180339042A1.

Legend:
[1] = biological target: human GITR, membrane bound (human) (UniProt Q9Y5U5); assay: cell-based or functional assay
activated T cells = activated T cells (UniProt Q9Y5U5); assay: FACS binding, activated T cells; isotype control
Chain of activated T cells (Q9Y5U5 26-241): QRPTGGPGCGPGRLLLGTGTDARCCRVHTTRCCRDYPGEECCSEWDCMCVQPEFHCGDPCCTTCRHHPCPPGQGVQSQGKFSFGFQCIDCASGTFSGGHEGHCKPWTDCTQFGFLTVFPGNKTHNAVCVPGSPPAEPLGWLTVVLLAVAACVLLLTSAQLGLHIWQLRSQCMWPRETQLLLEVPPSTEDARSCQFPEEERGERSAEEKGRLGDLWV

Chain of human GITR, membrane bound (human) (Q9Y5U5 26-241): as above

NFKB signaling (phospho-p65), CD4+ T cells, Emax (%) [1] [%] | NFKB signaling (phospho-p65), CD8+ T cells, Emax (%) [1] [%] | EC50 (activated T cells) [nM] | Substance
4 | 6 |  | hIgG1 Isotype Control (antibody)
 |  | 6.72 | unrelated hIgG2
 |  | 132 | unrelated hIgG1
